Test: soluble on expression in E. coli; label from the status in PepcDB or PDB records

Soluble on expression in E. coli, not soluble:
NRYQDLEKQVITTGNSIIEPLAIASESHLLAESREAVRRLISYAHRKNSKLVRSIAVFDEHHELFVTSNFHPNFEALMFPKDKPIPKLGNSEIYENSLILRVPILSEGHYLSELSNENQGTKAIGYIAVEMDLSSLRLQQYQE
MKISIVIVTYNRIPALCELLESISRQTLMPYEIIIVNDAGESVVPVKALYPELPIAVINLEKNSGHVAARNAGVKEASGDCIMLCDDDDFFTPGHIEKMAKEIETADFVHSDAEIVSFEEKNGTRYPVSRKLFAYTADYEDMRVFSTYVPSGSMYRRFLHDEIGYFDADVHNYWDWDFYLRAAKDYRVKRVPCASVIYAFSDAGDNQSADLGAKRKQYLDRLSEKHGLGELPTKNFAVLLEEPEMKRREAKSEMVWDGEPVYSRLHRSLEHHHHHH
MLKVDKVFPWETFRGKLESPYSKKPKWDVILLLKVLLIKFVYEISWLEGEIRDSKMFMKFLGGKVHQKSILLLQETVVDEGERMWTTLMTQQGLRQGDLEHHHHHH
MLAPERIHPALWRATQLAHGPTRKLPTGYADLSAQLPGGGWPLGALVELLLPQPGSGEIRLLRPALAQLEARRAIALVQPPHAPHIASWASWRLDPRQLLWVAPERPADALWAAEQILKAGSCAALLCWLPQVRPESLRRLHLAAQGGDALFVALRPAAAEQHASPAVLRLALAPAPGGLSIRIVKRRGPACEHPVHVGLEAGAGLSVFPAPHAPLDRRLPAQPVAGRRTPALVSLEHHHHHH
ETEQSVDLETVSVVGKSRPRATSGLLHTSTASDKIISGDTLRQKAVNLGDALDGVPGIHASQYGGGASAPVIRGQTGRRIKVLNHHGETGDMADFSPDHAIMVDTALSQQVEILR
MSKGGWYLWHYLTLLKGKAYCDIYCKRITFNVKFRYVYRHFHWYSSSNNKFKQLEHHHHHH
MNYAEICIIKRDGKREDFSISKIKNAIGKAFHASGIDNEDKLIAEITMRVISNFVSPTISVEEIQDLVEKELMKVRPEVAKKYIIYREWRNTERDRKTQMKHIMDGIVAIDKNDVNLSNANMSSHTPAGQMMTFASEVTKDYTYKYLLPKKYAEAHQLGDIHIHDLDYYPTKTTTCIQYDLDDLFERGFRTKNGSIRTPQSIQSYATLATIIFQTNQNEQHGGQAIPAFDFFMAEGVRKTFRKHLKTLTEFYIEVEGKEPGTEALKKIEEKAYAMTRKDTHQAMEGFIHNLNTMHSRGGNQVVFSSINYGTDTSPEGRMVIEELLKATIEGLGTRGEVPVFPIQIFKVKDGVSYSEEDYKKAMENFEAALEGKMEFQAPNFDLFLKACRTTAKALFPNFMFLDTPYNKNEKWDIKDPKRYRYELATMGCRTRVYENIAGEKSSLGRGNLSFTTMNMPRLAIEARIKAESLEESGKKEAIERKAKEIFIESVHALSELIAEQLYARYQYQRTALARQFPFMMGNDVWKGGGKLSPNDQVGDVLRQGTLGIGFIGGHNAMMALYGEGHAHSQKAWDTLFEAVTEMNKVADEYKQKYQLNFSVLATPAEGLSGRFTRMDRRKYGIIPGVTDNDYYVNSFHVDVKEPITITEKIKREAPFHAITRGGHITYVELDGEAQKNVKAIAKIVKVMHDEGIGYGSINHPVDTCQACGYKGVIYDKCPVCQSENIMRMRRITGYLTGDLSTWNSAKRAEERDRVKHG
MGSDKIHHHHHHMFYQLYEMNHAMMAPWRTAADAMRLAFSNPMNPVSHTYFGRAAAAGLEVFERATRRYGKPEFGLPETEIDGQPVPVRERIVWREPFCNLIHFERSLPRDRAPDPKVLIVAPMSGHYATLLRGTVEALLPHSDVYITDWIDARMVPLSEGTFDLDDYIDYVIQMLHFLGPDAHVIGVCQPAVPVLAAVALMEAAEDPLAPSTMTLMGGPIDTRINPTAVNELAKERPIEWFRDNVVMPVPWPQPGFMRMVYPGFLQLSGFMSMNLDRHLIAHKEFFAHLVKNDGDAAEKHRDFYDEYLAVMDLTAEFYLQTVQVVFMQHALPKGEMIHRGKRVDPTAIRRVALLTVEGENDDISGLGQTKAAQTICTGIPDSMRQHYMQPDVGHYGVFNGSRFRREIAPRIVAFQRRHSRHAKPVKQLIKGGKSA
DDLIEGYLSSEEYYHEESARYIQKFSKYVSENELSTSDRKAFGEWVKKENYINLTIFKDQELQYDSIYSESDYGKEKLTQYAQNHSHPVKFSDGEGRVIIDGFYSSRYYD
MAHHHHHHMWRLRSPGPCAGHVARPAAFTACRVVVGSSGATSADAASFRTTSAGAALVVAHRRKSYHFFMNLDDPDATRRRIEEDLDRLASDEKKDTTAYLHSLLNLALSHYQRGDFISARDMADYTHQKALVHNSKSSLIYFTATTCAHCAEALAKEYEAHLQRKDEQSHVSATLTPEPSVVFSARRAIKKLRADAERYRGIAHRVYHRPDMAFMRGSGGGGSGRWRSSARHAEGRDTRHTWADDSSNNGVDEDYIPHMYGPRWQDRRKRPEHAEMKHYYKHQCGTSPSSRGKTQWNVPK

Soluble on expression in E. coli, soluble:
MPIKSKANEVPKEEAGVKKETPKVARKATKKDTPKELKDKENAGDDNTPKQTKGRPGRPAAKRKNLDTPDVTEKLAMEEENPPKRRSSRLTRSTRSMAEDGSPSPEKEKPEKLPFIKYKGAIKYFTESQDIAASADDVLQWVEKQKDEVVPMAFDMEWPFSFQTGPGKSAVIQICVDEKCCYIYQLTNVKKLPAALVALINHPKVRLHGVNIKNDFRKLARDFPEVTAEPLIEKCVDLGLWCNEVCETGGRWSLERLTNFIAKKAMDKSKKVRMSKWHVIPLDENQLMYAAIDVYIGQVIYRELERREKVKIKNEEEFKEKNGDAAFKAMKALGETFLTKINEVTLLEHHHHHH
MSLQDLTINAIGAQGDGLARTADGKPAFVPLTLPGEVVRAKMDGARGEVVEILAPSPERVAPACRHYGVCGGCALQHWAAEPYRAWKAEQVRLQLSMEGLETEILPTFAAPPASRRRVALHARKGGKGQGARLGFKERRSWNLVSIEECPVTDPRLVAALPALARLAEPFLEHPKSAPTLHVTLTATGLDIDITGVERKSGGLSADARMRAAMAAGEGDFARVTLAGETIYGARQPLVKLGQAVVALPPGSFLQAVPAAEKAMVELAVAEAQGASRVADLYCGVGTFTFPLAEVAQVYAAEMSAPAITALKAAIGGAPGLKPITAEARDLVRRPVLSTELAKTDVVVIDPPRAGAAEQTVEIAKSKVAKVLGVSCNPQTFAKDARVLVDAGFKLVRVTPVDQFVWSPHIELVGVFTREGHHHHHH
MRKTLIALMFAAALPTVAMAMPDGGPRHDGPHHRGDAPFHQLDLSRDQRQQIGKLMGEQMQQRRDITERYLSKLPATDQKAMKDELQANRDKTDSAVRKLLTADQQKKFDELQKERAAKKAEWQEFQAWKAEKGAKAQLEHHHHHH
GMNANQFLKAVSQLQGWRECAFLLALAERSFPNYALFADAVGLKTGGKMRQLLDLAWDMLQKDVADAAIPQLLSKLETLCPNVDEYDAYGVYPAFDFCQLLEQALLNRLNPNKHRATEASQLATRTVMDFVEMSEGEGMDENELVRVFEHHPLLKDDKLFQRDTVMALYYYRTPKEAFLAELRAGAANDGVSNLGISLEG
MMKTLSSGNCTLSVPAKNSYRMVVLGASRVGKSSIVSRFLNGRFEDQYTPTIEDFHRKVYNIRGDMYQLDILDTSGNHPFPAMRRLSILTGDVFILVFSLDNRESFDEVKRLQKQILEVKSCLKNKTKEAAELPMVICGNKNDHGELCRQVPTTEAELLVSGDENCAYFEVSAKKNTNVDEMFYVLFSMAKLPHEMSPALHRKISVQYGDAFHPRPFCMRRVKEMDAYGMVSPFARRPSVNSDLKYIKAKVLREGQARERDKCTIQLEHHHHHH
MSLKQLDMTPQPDLSQKTGTGPVLTRLPVWRPALPPCNHACPAGENIQAWLSLAEAGRFEAAWQTLIEENPLPAIHGRVCYHPCESACNRAQVDDAVSIHAIERFLGDEALARGWQPAPPAPASGKKVLVIGAGPSGLSCAWHLNRLGHQVEIREAGPLAGGMLRFGIPAYRLPRDVLDREVARIVAAGVTLTLNHKVEDVLRERDEGGFDAVFMAIGAHLAKRVDIPAREAGKILDAVSFLEQASLAEEQGLPPPKLGRRVAIYGGGNTAMDAARTARRLGVEEAMIIYRRDREHMPAHAFEADEAEEEGIKINWLRSIRQLDNTNIEVEVMALDAEGKPVPTGKFETLEADSLILALGQEVDLSVLESIPGVRVNKEGVVQVGENLMTDVPGLFAGGDMVPSERTVTIATGHGKKAARHMDAWLRGRHYQKMVSYPLVGPEQLQLWFQTHAPASSQPVKPAWARDDFGEIIGGLDETAARYEAARCYSCGNCFECDGCYGSCPEQAIEKLGPGKGYQVDATRCTGCGACHDQCPCHAIELRQPEESEGHHHHHH
MSLATPSFGNSSPQLTFTHVANFMNDAAADVSAVDAKQLAQIRQFLKANKTNLIESLNTIRQNVTSSGDHNKLRSTIANLLQINVDNDPFFAQSEDLSHAVEFFMSERSSRLHIVYSLLVNPDIDLETYSFIDNDRFNVVGKLISIISSVIQNYDIITASSLAHDYNNDQDMFTIVSLVQLKKFSDLKFILQILQILNLMILNTKVPVDIVNQWFLQYQNQFVEFCRNINSTDKSIDTSSLQLYKFQNFQDLSYLSETLISRISSLFTITTILILGLNTSIAQFDIQSPLYMDTETFDTVNSALENDVATNIVNEDPIFHPMIHYSWSFILYYRRALQSSESFDDSDITKFALFAESHDVLQKLNTLSEILSFDPVYTTVITVFLEFSLNFIPITASTSRVFAKIISKAPEQFIENFLTNDTFEKKLSIIKAKLPLLNEEGHHHHHH
MSLKKLITANDIREAHARGEQAMSVVLRASIITPEAREVADLLGFTITECDESIPVTASVPASVPADKTESQRIRETIIAQLPEGQFTESLVAQLMEKVMKEKQSLEQGAMQPSFKSVTGKGGIKVIDGSSVKFGRFDGAEPHCVGLTDLVTGDDGSSMAAGFMQWENAFFPWTLNYDEIDMVLEGELHVRHEGQTMIAKAGDVMFIPKGSSIEFGTTSSVKFLYVAWPANWQSLEGGSHHHHHH
MKAYLGLYTARLETPARSLKEKRALIKPALERLKARFPVSAARLYGLDAWGYEVVGFTLLGNDPAWVEETMRAAARFLAEAGGFQVALEEFRLEAFELDGLL
MSLKLHKGIKEYECKECHRRFAQKVNMLKHCKRHTGIKDFMCELCGKTFSERNTMETHKLIHTVGKQWTCSVCDKKYVTEYMLQKHVQLTHDKVEAQSCQLCGTKVSTRASMSRHMRRKHPEVLAVRIDEGHHHHHH
MNFMEIGTPLFEGAKKLLWLGGGELGKEMVIEAQRMGIETVVVDRYDMAPAMHVAHRKYVVNMLDGNAIKSIIKKENPDAIITEIEAINTDALLELESEGYKVIPNAKAVKICMNRIELRKLAAEKVKVPTTQYGFAENPEEVKKICKDIGYPCIIKPEMSSSGHGHEVVYNESEVEQKFKEAITHARGKSEQVIVEEYVKIDRELTVLTYRYLDDKGVVTKTITPIEHQRPSDVYYYVESWHPSTVDKDIIERAQEYATRVVNELGGFGIFGVEIIVSGNRVLFSEVSPRPHDTGLVTMASLDINEFQIHVRSALGLPTPEVKIVSPAAAHVILANNEGWAPKFLNVEKALQIPGVQIRLFGKPSTYYKRRMGVVLATGNTVEEAKEKARKAASLVLVT
MAHHHHHHMFSRGAAATAMAKVSRLVSPRLRIIHRDYLTRRGGRTHQRCSAVAVDYTPTYFATYKSDPGQCPRLIDAEAVHGDEQAFWSARRDFYRGGASRSYYPAWDRQAQALIMLTREVPRIPQEAAFRLFTLGLKMMLLPRLVAGVELMLPSWVTMNAESVLNEGLEGKVAEADGDGKATGAAADAAALPSASSAGANEDSGSANAEKR
MAAEIKQGDHKFYVGDDENNPKAVITFKEVDNNEIDIDHTGVSDELGGQGLGKKLVNRVVEHARENNLKIIASCPFAKNVLEKDDHAQDVYLGLEHHHHHH

From the DeepSol protein solubility set
